Source: US20140056964A1, “GRANZYME B INHIBITOR COMPOSITIONS, METHODS AND USES FOR PROMOTING WOUND HEALING” (THE UNIVERSITY OF BRITISH COLUMBIA, priority 2010, published 2014)

Test system: wild type C57BL/6 mice
Assay: full thickness skin wound in mice, decorin immunohistochemistry of closed wound tissue
Type: in vivo, mouse
Details: 1 cm full thickness back wound, 60 μl applied directly onto the wound, 16 days
Procedure: As depicted in FIG. 23, decorin distribution is impacted by serpina3n in closed wound tissue. Seven week old wild type C57BL/6 mice were given a 1 cm diameter full thickness wound on their backs. Mice were then given either saline (upper panels) or the Granzyme B inhibitor, serpina3n (lower panels), by applying 60 μl of the appropriate solution directly onto the wound immediately following the wounding procedure. Wounds were allowed to heal for 16 days, at which point mice were sacrificed and the closed wound tissue harvested. […] Increased decorin throughout the newly formed dermis thus provides more organized collagen, less scarring and increased tensile strength.

B1: serpina3n: the Granzyme B inhibitor, serpina3n; Serpina3n is also known as SerpinA3 (protein, UniProt Q91WP6 21-418, looked up)
Serine protease inhibitor A3N: FPDGTLGMDAAVQEDHDNGTQLDSLTLASINTDFAFSLYKELVLKNPDKNIVFSPLSISAALAVMSLGAKGNTLEEILEGLKFNLTETSEADIHQGFGHLLQRLNQPKDQVQISTGSALFIEKRQQILTEFQEKAKTLYQAEAFTADFQQPRQAKKLINDYVRKQTQGMIKELVSDLDKRTLMVLVNYIYFKAKWKVPFDPLDTFKSEFYAGKRRPVIVPMMSMEDLTTPYFRDEELSCTVVELKYTGNASALFILPDQGRMQQVEASLQPETLRKWKNSLKPRMIDELHLPKFSISTDYSLEDVLSKLGIREVFSTQADLSAITGTKDLRVSQVVHKAVLDVAETGTEAAAATGVKFVPMSAKLYPLTVYFNRPFLIMIFDTETEIAPFIAKIANPK
  decorin distribution (immunohistochemistry) in newly formed dermis: intense decorin staining near the dermal-epidermal junction but also demonstrated intense decorin staining deeper into the dermis
